This is an account of results in patent US20160368985A1.

For assay [1], the target named is T1, soluble human FcRH5 protein fragment (human) (UniProt Q96RD9).
T1 sequence: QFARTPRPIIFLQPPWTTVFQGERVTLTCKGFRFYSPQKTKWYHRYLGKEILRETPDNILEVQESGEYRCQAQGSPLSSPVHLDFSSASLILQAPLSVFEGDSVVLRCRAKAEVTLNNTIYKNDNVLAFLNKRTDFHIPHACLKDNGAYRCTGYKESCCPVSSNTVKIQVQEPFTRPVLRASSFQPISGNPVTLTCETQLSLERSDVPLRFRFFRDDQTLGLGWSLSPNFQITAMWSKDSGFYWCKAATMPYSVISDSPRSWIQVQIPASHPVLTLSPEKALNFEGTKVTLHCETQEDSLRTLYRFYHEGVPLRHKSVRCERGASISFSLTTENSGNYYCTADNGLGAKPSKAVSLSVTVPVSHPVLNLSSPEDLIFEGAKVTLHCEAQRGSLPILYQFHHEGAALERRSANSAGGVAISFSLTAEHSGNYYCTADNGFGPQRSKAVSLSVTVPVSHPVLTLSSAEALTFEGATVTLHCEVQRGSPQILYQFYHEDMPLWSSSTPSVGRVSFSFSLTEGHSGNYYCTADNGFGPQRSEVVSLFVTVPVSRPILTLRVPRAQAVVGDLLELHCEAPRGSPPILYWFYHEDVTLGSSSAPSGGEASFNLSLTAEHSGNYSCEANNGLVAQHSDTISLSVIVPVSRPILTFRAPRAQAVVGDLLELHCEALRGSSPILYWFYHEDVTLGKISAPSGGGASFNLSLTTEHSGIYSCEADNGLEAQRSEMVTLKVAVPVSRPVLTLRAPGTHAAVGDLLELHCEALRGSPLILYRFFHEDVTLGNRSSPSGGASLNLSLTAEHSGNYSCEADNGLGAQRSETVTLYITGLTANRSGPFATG
In words: SPR screening, human IgG capture.

The target of assay [2] is T2, soluble cynomolgus FcRH5 protein fragment (cynomolgus monkey).
T2 sequence: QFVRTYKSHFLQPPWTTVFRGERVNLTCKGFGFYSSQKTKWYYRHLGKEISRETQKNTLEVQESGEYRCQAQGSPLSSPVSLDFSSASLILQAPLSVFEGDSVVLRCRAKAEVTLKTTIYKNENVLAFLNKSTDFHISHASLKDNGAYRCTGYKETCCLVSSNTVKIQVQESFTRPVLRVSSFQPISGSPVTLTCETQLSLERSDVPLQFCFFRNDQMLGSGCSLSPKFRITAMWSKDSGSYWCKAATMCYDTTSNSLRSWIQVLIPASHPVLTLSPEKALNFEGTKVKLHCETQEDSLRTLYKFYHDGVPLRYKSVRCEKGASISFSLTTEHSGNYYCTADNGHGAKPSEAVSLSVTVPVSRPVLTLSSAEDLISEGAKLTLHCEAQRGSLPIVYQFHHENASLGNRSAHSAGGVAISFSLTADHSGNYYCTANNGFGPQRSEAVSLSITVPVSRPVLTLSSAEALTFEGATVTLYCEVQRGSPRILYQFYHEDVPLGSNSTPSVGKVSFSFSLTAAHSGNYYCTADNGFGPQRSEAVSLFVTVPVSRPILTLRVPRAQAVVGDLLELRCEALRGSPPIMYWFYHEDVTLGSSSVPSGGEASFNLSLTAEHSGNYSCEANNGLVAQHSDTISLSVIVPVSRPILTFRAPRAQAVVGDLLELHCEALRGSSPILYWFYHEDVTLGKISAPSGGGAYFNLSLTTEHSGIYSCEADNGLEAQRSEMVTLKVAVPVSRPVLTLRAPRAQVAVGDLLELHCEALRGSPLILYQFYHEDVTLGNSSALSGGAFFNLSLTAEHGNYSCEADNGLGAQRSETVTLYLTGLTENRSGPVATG
In words: BIACORE.

Assay [3] has the same target. Kind of assay: SPR, human IgG capture, 1:1 model.
Assay [4] shares this target. Kind of assay: BIACORE, hIgG capture, 1:1 model, monovalent. For orientation: Surface plasmon resonance follows binding to a sensor surface in real time, without labels.

B1: hu1G7.v1 heavy chain W52F + light chain of hu1G7.v1.6 (antibody, part only; not given: hu1G7.v1.6 light chain, V domains shown, part only)
VH: EVQLVESGPGLVKPSETLSLTCTVSGFSLTRFGVHWVRQPPGKGLEWLGVIFRGGSTDYNAAFMSRLTISKDNSKNQVSLKLSSVTAADTAVYYCSNHYYGSSDYALDNWGQGTLVTVSS
Broadly, the Kd is the concentration at which binding is half-saturated. Low values mean a tighter complex, high ones a looser complex. In assay [1], B1 showed a Kd of 81 nM.

B2: hu1G7.v1 heavy chain M64F + light chain of hu1G7.v1.6 (antibody, part only; not given: hu1G7.v1.6 light chain, V domains shown, part only)
VH: EVQLVESGPGLVKPSETLSLTCTVSGFSLTRFGVHWVRQPPGKGLEWLGVIWRGGSTDYNAAFFSRLTISKDNSKNQVSLKLSSVTAADTAVYYCSNHYYGSSDYALDNWGQGTLVTVSS
In turn, B2 displayed a Kd in assay [1] of 2.6 nM.

B3: hu1G7.v1 heavy chain W52L + light chain of hu1G7.v1.6 (antibody, part only; not given: hu1G7.v1.6 light chain, V domains shown, part only)
VH: EVQLVESGPGLVKPSETLSLTCTVSGFSLTRFGVHWVRQPPGKGLEWLGVILRGGSTDYNAAFMSRLTISKDNSKNQVSLKLSSVTAADTAVYYCSNHYYGSSDYALDNWGQGTLVTVSS
With B3, in assay [1], the Kd turned out to be 250 nM.

B4: hu1G7.v1 heavy chain M64I + light chain of hu1G7.v1.6 (antibody, part only; not given: hu1G7.v1.6 light chain, V domains shown, part only)
VH: EVQLVESGPGLVKPSETLSLTCTVSGFSLTRFGVHWVRQPPGKGLEWLGVIWRGGSTDYNAAFISRLTISKDNSKNQVSLKLSSVTAADTAVYYCSNHYYGSSDYALDNWGQGTLVTVSS
The molecule B4 gave a Kd in assay [1] of 2.7 nM.

B5: hu1G7.v1 heavy chain W52H + light chain of hu1G7.v1.6 (antibody, part only; not given: hu1G7.v1.6 light chain, V domains shown, part only)
VH: EVQLVESGPGLVKPSETLSLTCTVSGFSLTRFGVHWVRQPPGKGLEWLGVIHRGGSTDYNAAFMSRLTISKDNSKNQVSLKLSSVTAADTAVYYCSNHYYGSSDYALDNWGQGTLVTVSS
With B5, the Kd in assay [1] came out at 110 nM.

B6: hu1G7.v1 heavy chain W52Y + light chain of hu1G7.v1.6 (antibody, part only; not given: hu1G7.v1.6 light chain, V domains shown, part only)
VH: EVQLVESGPGLVKPSETLSLTCTVSGFSLTRFGVHWVRQPPGKGLEWLGVIYRGGSTDYNAAFMSRLTISKDNSKNQVSLKLSSVTAADTAVYYCSNHYYGSSDYALDNWGQGTLVTVSS
In assay [1], B6 returned a dissociation constant (Kd) of 530 nM. This Kd lies about 4.8-fold higher than the previous one.

B7: hu1G7.v85/38E4.v1 TDB (bispecific antibody, V domains shown)
VH 1: EVQLVESGPGLVKPSETLSLTCTVSGFSLTRFGVHWVRQPPGKGLEWLGVIWRGGSTDYNAAFVSRLTISKDNSKNQVSLKLSSVTAADTAVYYCSNHYYGSSDYALDNWGQGTLVTVSS
VL 1: DIQMTQSPSSLSASVGDRVTITCKASQDVRNLVVWFQQKPGKAPKLLIYSGSYRYSGVPSRFSGSGSGTDFTLTISSLQPEDFATYYCQQHYSPPYTFGQGTKVEIK
VH 2: EVQLVQSGAEVKKPGASVKVSCKASGFTFTSYYIHWVRQAPGQGLEWIGWIYPENDNTKYNEKFKDRVTITADTSTSTAYLELSSLRSEDTAVYYCARDGYSRYYFDYWGQGTLVTVSS
VL 2: DIVMTQSPDSLAVSLGERATINCKSSQSLLNSRTRKNYLAWYQQKPGQSPKLLIYWTSTRKSGVPDRFSGSGSGTDFTLTISSLQAEDVAVYYCKQSFILRTFGQGTKVEIK
Usually koff stands for a measure of how fast the partners let go of each other. Low readings indicate slow dissociation, high ones fast dissociation. Broadly, the kon is a measure of how fast the partners come together. Higher therefore signals faster complex formation. As for B7, in assay [2], the Kd came to 7.8 nM. In assay [3], the Kd was found to be 6.8 nM, the koff was determined as 0.0008 s⁻¹ and the kon came to 100000 M⁻¹ s⁻¹. In assay [4], this molecule registered a Kd of 6.76 nM.

B8: hu1G7.v1 heavy chain M64V + light chain of hu1G7.v1.6 (antibody, part only; not given: hu1G7.v1.6 light chain, V domains shown, part only)
VH: EVQLVESGPGLVKPSETLSLTCTVSGFSLTRFGVHWVRQPPGKGLEWLGVIWRGGSTDYNAAFVSRLTISKDNSKNQVSLKLSSVTAADTAVYYCSNHYYGSSDYALDNWGQGTLVTVSS
B8 registered a Kd in assay [1] of 2.7 nM. This lies in the single-digit nanomolar range.

B9: hu1G7.v93/38E4.v1 TDB (bispecific antibody, V domains shown)
VH 1: EVQLVESGPGLVKPSETLSLTCTVSGFSTTRFGVHWVRQPPGKGLEWLGVIWRGGSTDYNAAFVSRLTISKDNSKNQVSLKLSSVTAADTAVYYCSNHYYGSPDYALDNWGQGTLVTVSS
VL 1: DIQMTQSPSSLSASVGDRVTITCKASQDVSNLVVWFQQKPGKAPKLLIYSGSYRYSGVPSRFSGSGSGTDFTLTISSLQPEDFATYYCQQHYSPPYTFGQGTKVEIK
VH 2: EVQLVQSGAEVKKPGASVKVSCKASGFTFTSYYIHWVRQAPGQGLEWIGWIYPENDNTKYNEKFKDRVTITADTSTSTAYLELSSLRSEDTAVYYCARDGYSRYYFDYWGQGTLVTVSS
VL 2: DIVMTQSPDSLAVSLGERATINCKSSQSLLNSRTRKNYLAWYQQKPGQSPKLLIYWTSTRKSGVPDRFSGSGSGTDFTLTISSLQAEDVAVYYCKQSFILRTFGQGTKVEIK
Consider B9, for which, in assay [2], the Kd worked out at 8.1 nM.
